Test results: US20180354988A1 (University of California, published 2018)
Substitutions are numbered along the chain they refer to. In names and notes the source's numbering stands.

What was measured:
self-assembly, TEM = target: the molecule itself; assay: self-assembly, TEM
[1] = target: the molecule itself; assay: disulfide-mediated self-assembly
[2] = target: the molecule itself; assay: oxidative self-assembly conditions; TEM

B1: ^C98RhuA-ACP (enzyme)
chain: MQNITQSWFVQGMIKATTDAWLKGWDERNGGNLTLRLDDADIAPYHDNFHQQPRYIPLSQPMPLLANTPFIVTGSGKFFRNVQLDPAANLGIVKVDSCGAGYHILWGLTNEAVPTSELPAHFLSHSERIKATNGKDRVIMHCHATNLIALTYVLENDTAVFTRQLWEGSTECLVVFPDGVGILPWMVPGTDAIGQATAQEMQKHSLVLWPFHGVFGSGPTLDETFGLIDTAEKSAQVLVKVYSMGGMKQTISREELIALGKRFGVTPLASALALGSGSGSTIEERVKKIIGEQLGVKQEEVTNNASFVEDLGADSLDTVELVMALEEEFDTEIPDEEAEKITTVQAAIDYINGHQA
- binding result (self-assembly, TEM): binds

B2: ^C98RhuA-Pd4 (enzyme)
chain: MQNITQSWFVQGMIKATTDAWLKGWDERNGGNLTLRLDDADIAPYHDNFHQQPRYIPLSQPMPLLANTPFIVTGSGKFFRNVQLDPAANLGIVKVDSCGAGYHILWGLTNEAVPTSELPAHFLSHSERIKATNGKDRVIMHCHATNLIALTYVLENDTAVFTRQLWEGSTECLVVFPDGVGILPWMVPGTDAIGQATAQEMQKHSLVLWPFHGVFGSGPTLDETFGLIDTAEKSAQVLVKVYSMGGMKQTISREELIALGKRFGVTPLASALALGSGSGTSNAVHPTLRHL
notes: also called C98-RhuA-Pd4 mutant
- binding result (self-assembly, TEM): binds

B3: ^C98RhuA (L-rhamnulose-1-phosphate aldolase variant D98C/C126S/E192A) (enzyme)
chain: MQNITQSWFVQGMIKATTDAWLKGWDERNGGNLTLRLDDADIAPYHDNFHQQPRYIPLSQPMPLLANTPFIVTGSGKFFRNVQLDPAANLGIVKVDSCGAGYHILWGLTNEAVPTSELPAHFLSHSERIKATNGKDRVIMHCHATNLIALTYVLENDTAVFTRQLWEGSTECLVVFPDGVGILPWMVPGTDAIGQATAQEMQKHSLVLWPFHGVFGSGPTLDETFGLIDTAEKSAQVLVKVYSMGGMKQTISREELIALGKRFGVTPLASALAL
notes: C4 symmetric homotetramer (4 x 274 residues); Tetramers link to each other through single C98-C98 disulfide bonds at the corners; also called RhuA-C98; Rhu-C98
- binding result [1]: binds

B4: ^C266RhuA (enzyme)
chain: B3 chain with C98D, T266C
notes: Surface cysteine lies on the sides of the tetramer; also called RhuA-C266
- binding result [2]: binds

B5: ^C133RhuA (enzyme)
chain: B3 chain with C98D, N133C
notes: Surface cysteine lies on the sides of the tetramer; also called RhuA-C133
- binding result [2]: binds

B6: ^C98RhuA-HisTag (enzyme)
chain: MQNITQSWFVQGMIKATTDAWLKGWDERNGGNLTLRLDDADIAPYHDNFHQQPRYIPLSQPMPLLANTPFIVTGSGKFFRNVQLDPAANLGIVKVDSCGAGYHILWGLTNEAVPTSELPAHFLSHSERIKATNGKDRVIMHCHATNLIALTYVLENDTAVFTRQLWEGSTECLVVFPDGVGILPWMVPGTDAIGQATAQEMQKHSLVLWPFHGVFGSGPTLDETFGLIDTAEKSAQVLVKVYSMGGMKQTISREELIALGKRFGVTPLASALALGSGSGHHHHHH
notes: also called RhuA-C98-HisTag; C98-His tagged RhuA mutant
- binding result (self-assembly, TEM): binds
